Results taken from article PMC10123111.

Test system: HaloTag-JF635-DDB2 (human)
Assay: single-molecule binding (optical tweezers, confocal)
Conditions: with eGFP-DDB1; from kon and koff; corrected lifetime 39.0 s; UV-C photoproducts (CPD and 6-4PP), random positions; Nuclear extracts in LUMICKS C-trap flow cell, lambda DNA tethered at about 10 pN; buffer, salt, pH and temperature not given in the material

Work on UV-damaged lambda DNA (40 J/m2) yielded a Kd of 0.4 nM.
